Test: yeast display, Sf9 membrane polyspecificity reagent, FACS + sequencing; frameworks hold sequencing errors
Summary of the method: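 Polyreactivity labels are assigned by the sorting gate from which each nanobody was recovered. The gates were low and high (top ~1%), set on anti-HA fluorescence for expression and streptavidin fluorescence for reagent binding. Before sorting, galactose-induced (36–48 hours) yeast display cells were stained for 1 hour at 4 °C with 10% biotinylated, detergent-solubilized Sf9 membrane reagent.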

Sequence | polyreactivity (PSR sort gate)
QVQLVESGGGLVQAGGSLRLSCAASGFTFSRNVMGWYRQAPGKERELVADITLSGASTYYADSVKGRFTISRDNAKNTVYLQMNSLKPEDTADYYCAADPYHWRWGWRHDYWGQGTQVTVSS | low polyreactivity
QVQLVESGGGLVQAGGSLRLSCAASGFTFSRYAMGWYRQAPGKERELVAVISSSGSRTYYADSVKGRFTISRDNAKNTVYLQMNSLTPEDTAVYYCAAKSYTVTGYEYWGQGTQVTVSS | high polyreactivity
QVQLVESGGGLVQAGGSLRLSCAASGFTFSSNAMGSYRQAPGKERELVAAISFNSTSTYYADSVKVRFTISRDNAKNTVYLQMNSLKPEDTAVYYCAADVPRVQSEPEYDYSGQGTQVTVSS | low polyreactivity
QVQLVESGGGLVQAGGSLRLSCAASGFTFSSYAMGWSRQAPGKERELVAAISTRGGSTYYADSVKGRFTISRDNAKNTVYLQMNSLKPEDTAVYYCATGGRGGRRYEYWGQGTQVTVSS | low polyreactivity
QVQLVESGGGLVQAGGSLRLSCAASGFTFSSYAMGWYRQAPGKERELVAAISTRGGSTYYADSVKGRFTISRDNAKNTVYLQMNSLKPEDTAVYYCATGGRGGRRYEYWGQGTQVTVSS | low polyreactivity
QVQLVESGGGLVQAGGSLRLSCAASGFTFSSYAMGWYRQAPGKERELVAAISTRGGSTYYADSVKGRFTISRDNAKNTVYLQMNSLNPEDSAVYYCAAPVNTSGDEYGYWGQGTQVTVSS | low polyreactivity
QVQLVESGGGLVQAGGSLRLSCAASGFTFSSYAMGWYRQAPGKERELVAAITWGGGRTYYADSVKGRFTISRDNAKNTVYLQINSLKPEDTAVYYCNVPQWVSIWRKNNYWGLGTQVTVSS | high polyreactivity
QVQLVESGGGLVQAGGSLRLSCAASGFTFSTYAMGWYRQAPGKERELVAAISSGDSTYADSVKGRFTISRDNAKNTVYLQMNSLKPEDTAVYYCAAYVSVPYRNYYYWGQGTQVTVSS | high polyreactivity
QVQLVESGGGLVQAGGSLRLSCAASGFTFSTYAMGWYRQAPGKERELVSAISFSGGSTYYADSVKGRFTISRDNAKNTVYLQMNSLKPEDTAVYYCARAYTKYFEIYFIYALLYGHWGQGTQVTVSS | low polyreactivity
QVQLVESGGGLVQAGGSLRLSCAASGFTFSTYTMGWYRQAPGKERELVAAIRRSGDSTYYADSVKGRFTISRDNAKNTVYLQMNSLKPEDTAVYYCNAVRYRFERFDYWGQGTQVTVSS | high polyreactivity
QVQLVESGGGLVQAGGSLRLSCAASGFTFSVNDMGWYRQAPGKERELVAGISRGDNTNYADSVKGRFTISRDNAKNTVYLQMNSLKPEDTAVYYCAADFSLGLYRSWFGDYDYWGQGTQVTVSS | low polyreactivity
QVQLVESGGGLVQAGGSLRLSCAASGFTFSWYVMGWYRQAPGKERELVAAISSSGGSTYYADSVKGRFTISRDNAKNTVYLQMKSLKPEDTAVYYCSAGRPYGDGDYWGQGTQVTVSS | high polyreactivity
QVQLVESGGGLVQAGGSLRLSCAASGFTFSYNAMGWYRQAPGKERELVAAISSTGTSTYYADSVKGRFTISRDNAKNTVYLQMISLKPEDTAVYYCNAYGYDGYYAGRHGYWGQGTQVTVSS | low polyreactivity
QVQLVESGGGLVQAGGSLRLSCAASGFTFSYNAMGWYRQAPGKERELVAGISYGGGNTFYADSVKGRFTISRDNAKNTVYLQMNSLKPEDTAVYDCAAVNKSGTYVEYDYWGQGTQVTVSS | low polyreactivity
QVQLVESGGGLVQAGGSLRLSCAASGFTFSYYAMGWYRQAPGKERELVAAITTSGGRTYYADSVKGRFTISRDNAKNTVYLQMNSLKPEDPAVYYCAATYPRYYSGEFDYWGQGTQVTVSS | high polyreactivity
QVQLVESGGGLVQAGGSLRLSCAASGFTFSYYAMGWYRQAPGKERELVARISFSGTRTYYADSVKGRFTISRDNAKNTVYLQMNSLKPEDTAVYYCAARFGYVGITARYDYWGQGTQVTVSS | high polyreactivity
